Results published in patent publication US20240327522A1 (Genentech, published 2024).

Tests used:
[1] = molecular target: T1, recombinant human αvβ8 protein (PARS-17102) (human); experiment: SPR, Biacore T200, Protein A capture, human αvβ8 analyte 0-100 nM, 37 C, 1:1 model (comparison with hC6D4, FIG. 9A)
T1 construct: also called hu.aVb8.17102; not shown: C-terminal acid/basic coils and any purification tags
T1 alpha: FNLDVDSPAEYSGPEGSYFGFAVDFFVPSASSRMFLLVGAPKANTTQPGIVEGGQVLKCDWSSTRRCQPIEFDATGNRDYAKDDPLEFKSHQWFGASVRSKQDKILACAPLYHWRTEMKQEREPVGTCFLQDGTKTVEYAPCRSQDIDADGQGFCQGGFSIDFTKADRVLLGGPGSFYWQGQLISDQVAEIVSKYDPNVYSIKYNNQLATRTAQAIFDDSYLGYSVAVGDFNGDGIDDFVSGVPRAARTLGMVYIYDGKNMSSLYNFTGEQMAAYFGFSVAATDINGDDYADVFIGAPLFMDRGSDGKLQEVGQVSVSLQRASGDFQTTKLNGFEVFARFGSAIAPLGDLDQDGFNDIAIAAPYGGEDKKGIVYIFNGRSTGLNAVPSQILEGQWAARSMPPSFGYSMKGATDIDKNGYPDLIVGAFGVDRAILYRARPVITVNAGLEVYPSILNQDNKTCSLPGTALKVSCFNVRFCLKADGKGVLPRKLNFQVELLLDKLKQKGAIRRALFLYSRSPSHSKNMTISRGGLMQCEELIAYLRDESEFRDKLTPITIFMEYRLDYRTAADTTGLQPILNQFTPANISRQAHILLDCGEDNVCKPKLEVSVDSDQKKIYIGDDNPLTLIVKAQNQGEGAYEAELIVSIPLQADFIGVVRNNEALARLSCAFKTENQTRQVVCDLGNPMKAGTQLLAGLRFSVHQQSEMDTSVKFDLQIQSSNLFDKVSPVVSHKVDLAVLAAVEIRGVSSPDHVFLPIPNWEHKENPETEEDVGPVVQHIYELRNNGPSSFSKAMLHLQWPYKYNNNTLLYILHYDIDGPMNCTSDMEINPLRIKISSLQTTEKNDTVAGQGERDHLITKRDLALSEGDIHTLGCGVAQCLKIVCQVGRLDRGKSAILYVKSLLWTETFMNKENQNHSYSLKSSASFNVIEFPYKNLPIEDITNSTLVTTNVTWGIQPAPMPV
T1 beta: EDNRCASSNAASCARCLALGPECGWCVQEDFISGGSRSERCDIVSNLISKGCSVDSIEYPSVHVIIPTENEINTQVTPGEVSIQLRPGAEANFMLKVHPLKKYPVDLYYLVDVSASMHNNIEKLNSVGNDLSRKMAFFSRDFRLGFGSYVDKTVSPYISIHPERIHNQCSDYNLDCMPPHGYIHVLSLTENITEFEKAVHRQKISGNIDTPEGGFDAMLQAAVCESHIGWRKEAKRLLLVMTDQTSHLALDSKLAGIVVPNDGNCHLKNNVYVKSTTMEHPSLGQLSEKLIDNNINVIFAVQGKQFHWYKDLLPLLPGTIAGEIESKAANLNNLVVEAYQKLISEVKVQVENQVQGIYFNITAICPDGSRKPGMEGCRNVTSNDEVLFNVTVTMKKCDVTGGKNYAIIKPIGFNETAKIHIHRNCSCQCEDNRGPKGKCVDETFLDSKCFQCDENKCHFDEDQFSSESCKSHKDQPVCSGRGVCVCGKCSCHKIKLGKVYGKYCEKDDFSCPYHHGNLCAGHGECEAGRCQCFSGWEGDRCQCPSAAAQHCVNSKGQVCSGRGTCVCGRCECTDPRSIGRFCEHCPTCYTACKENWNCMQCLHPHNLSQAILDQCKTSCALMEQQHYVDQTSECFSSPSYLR
Protocol: The antibodies were first captured either on a Biacore™ Protein A biosensor chip (Cytiva Life Sciences) or on an anti-murine Fc chip to achieve approximately 60 response units. Binding measurements were performed using a running buffer composed of 10 mM HEPES (pH 7.4), 150 mM NaCl, 0.5 mM CaCl₂), and 0.005% Surfactant P20 (Cytiva Life Sciences). For comparison between αvβ8-65 and hC6D4, a 5-fold dilution series of human αvβ8 (range, 0-100 nM in running buffer) was injected into the Biacore™ T200. For comparison between αvβ8-65 and hADWA11-2.4, a 5-fold dilution series of human αvβ8 (range, 0-100 nM in running buffer) was injected. For comparison of all three antibodies in the murine Fc format, a 5-fold dilution series of human αvβ8 (range, 0-50 nM in running buffer) was injected. All injections were performed over 180 seconds, with a dissociation time of 1200 seconds, at a flow rate of 100 μL/minute and a temperature of 37° C. Between sample injections, a regeneration reagent (10 mM glycine pH 1.5 for protein A chip; 10 mM glycine pH 1.7 for anti-murine Fc chip) was injected to regenerate the sensor chip (twice, over 30 seconds at 10 μL/minute for each injection). To determine the binding kinetics and affinity constants of the antibodies to human αvβ8 protein, the signal from the reference flow cell (FC1, with only protein A on the surface) was “double referenced” by subtracting the signal observed after injecting the sample over FC1, followed by subtracting the signal observed after injecting only running buffer. The kinetic constants were calculated using nonlinear regression fitting of the data, according to a 1:1 Langmuir binding model, using Biacore™ Evaluation Software (Cytiva Life Sciences).
The values of the kinetic constants kon, koff, and KD for the binding of αvβ8-65, hC6D4 and ADWA11-2.4 to the various species of αvβ8 proteins are summarized in Table 13. A 1:1 Langmuir binding model was used to determine the KD values. The sensograms observed for the bindings of the various αvβ8 proteins to the captured antibody are shown in FIG. 9A, FIG. 9B, and FIG. 10.

[2] = molecular target: T2, recombinant mouse αvβ8 protein (PARS-17103) (murine, UniProt P43406 31-988; Q0VBD0 43-681, limits assumed); experiment: SPR binding assay, experiment 1, antibody as ligand, aVb8 as sample
T2 construct: Made in house; also called mu.aVb8.17103

[3] = molecular target: T3, recombinant cynomolgus monkey αvβ8 protein (PARS-19393) (cynomolgus monkey, UniProt A0A2K5WCD3 31-992; G7P0S0 43-684); experiment: as above
T3 construct: also called cyno.aVb8-19393; cyno.aVb8

[4] = molecular target: T1, recombinant human αvβ8 protein …; experiment: as above

T2 sequence (P43406 31-988 limits assumed, chain 1 of 2): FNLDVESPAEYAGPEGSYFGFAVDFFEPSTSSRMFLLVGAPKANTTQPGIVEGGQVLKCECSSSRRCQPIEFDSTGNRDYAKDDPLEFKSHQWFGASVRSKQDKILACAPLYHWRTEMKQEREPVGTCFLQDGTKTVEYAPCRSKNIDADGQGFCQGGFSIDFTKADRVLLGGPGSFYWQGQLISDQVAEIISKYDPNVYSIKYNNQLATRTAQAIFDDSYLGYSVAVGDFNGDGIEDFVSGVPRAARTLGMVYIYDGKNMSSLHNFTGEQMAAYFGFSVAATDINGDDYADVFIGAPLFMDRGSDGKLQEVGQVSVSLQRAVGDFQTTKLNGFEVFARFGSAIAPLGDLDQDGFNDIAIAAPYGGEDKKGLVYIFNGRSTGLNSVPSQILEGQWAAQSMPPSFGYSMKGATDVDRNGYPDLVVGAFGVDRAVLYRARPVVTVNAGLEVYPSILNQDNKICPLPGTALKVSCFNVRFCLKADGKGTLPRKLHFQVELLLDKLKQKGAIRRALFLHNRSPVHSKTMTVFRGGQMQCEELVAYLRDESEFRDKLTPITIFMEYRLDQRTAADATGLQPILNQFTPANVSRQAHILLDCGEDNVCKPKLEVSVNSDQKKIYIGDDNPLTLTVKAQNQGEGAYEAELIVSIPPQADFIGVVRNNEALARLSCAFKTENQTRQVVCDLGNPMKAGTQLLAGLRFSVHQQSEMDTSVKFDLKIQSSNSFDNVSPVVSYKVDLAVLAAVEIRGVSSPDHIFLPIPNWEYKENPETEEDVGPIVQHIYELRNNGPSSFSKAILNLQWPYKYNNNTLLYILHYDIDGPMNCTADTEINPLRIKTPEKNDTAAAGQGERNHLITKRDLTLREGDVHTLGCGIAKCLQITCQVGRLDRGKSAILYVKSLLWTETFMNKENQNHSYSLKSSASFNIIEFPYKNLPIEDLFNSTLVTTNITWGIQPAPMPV
T2 sequence (Q0VBD0 43-681 limits assumed, chain 2 of 2): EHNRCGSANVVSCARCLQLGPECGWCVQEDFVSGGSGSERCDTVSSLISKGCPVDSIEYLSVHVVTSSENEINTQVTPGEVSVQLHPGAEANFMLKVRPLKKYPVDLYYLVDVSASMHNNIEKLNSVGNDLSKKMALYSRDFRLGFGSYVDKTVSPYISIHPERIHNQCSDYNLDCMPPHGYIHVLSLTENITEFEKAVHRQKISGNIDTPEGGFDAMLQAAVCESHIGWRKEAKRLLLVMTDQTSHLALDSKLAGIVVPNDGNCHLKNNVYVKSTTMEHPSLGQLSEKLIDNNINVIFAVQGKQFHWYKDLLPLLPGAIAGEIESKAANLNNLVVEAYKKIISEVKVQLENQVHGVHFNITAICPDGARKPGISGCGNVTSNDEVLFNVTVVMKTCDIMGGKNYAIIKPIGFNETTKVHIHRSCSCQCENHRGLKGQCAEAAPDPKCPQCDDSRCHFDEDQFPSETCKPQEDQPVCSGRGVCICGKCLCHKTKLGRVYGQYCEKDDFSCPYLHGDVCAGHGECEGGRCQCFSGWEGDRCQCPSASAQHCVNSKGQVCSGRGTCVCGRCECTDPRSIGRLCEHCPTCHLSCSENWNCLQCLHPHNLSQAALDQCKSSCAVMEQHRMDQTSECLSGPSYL

B1: Hu.aVb8-65.H15L2 (aVb8-65.H15L2.hIgG1.LALAPG) (antibody, V domains shown)
VH: EVQLLESGGGLVQPGGSLRLSCAASGIDLSNYAMIWVRQAPGKGLEWVGIISSSDRIWYASWVKGRFTISRDNSKNTLYLQMNSLRAEDTAVYYCSRSVSNSYFDGWNLWGQGTLVTVSS
VL: DIQMTQSPSSVSASVGDRVTITCQASENINSLLAWYQQKPGKAPKLLIYRASTLASGVPSRFSGSGSGTDFTLTISSLQPEDFATYYCQSNYGFTGSGAFFYGFGQGTKVEIKR
notes: Human IgG1 LALAPG; also called PARS-20475-65 (IH) aVb8-65.H15L2.hIgG1.LALAPG; humanized αvβ8-65
In the case of B1, the Kd [1] is reported as 1010 pM, the koff [1] is reported as 0.000169 s⁻¹ and the kon [1] is reported as 168000 M⁻¹ s⁻¹. The Kd [2] was 906 pM, the koff [2] was 0.000155 s⁻¹ and the kon [2] was 171000 M⁻¹ s⁻¹. The Kd [3] was 480 pM, the koff [3] was 0.000164 s⁻¹ and the kon [3] was 341000 M⁻¹ s⁻¹. It also gave a Kd [4] of 384 pM, a koff [4] of 0.000208 s⁻¹ and a kon [4] of 540000 M⁻¹ s⁻¹.
